# T1: His-tagged human VEGFR-3 (residues 30-326) (human, UniProt P35916 30-326)
# T1 construct: Vascular endothelial growth factor receptor 3 (VEGFR-3), human, residues 30-326 (extracellular Ig domains 1-3); The primers fit P30 to I326; the reverse primer has no stop codon, so vector residues and a second His tag may follow at the C-terminus (my surmise); also called Wild-type VEGFR-3; extracellular domains 1, 2 and 3
# T1 sequence (looked up): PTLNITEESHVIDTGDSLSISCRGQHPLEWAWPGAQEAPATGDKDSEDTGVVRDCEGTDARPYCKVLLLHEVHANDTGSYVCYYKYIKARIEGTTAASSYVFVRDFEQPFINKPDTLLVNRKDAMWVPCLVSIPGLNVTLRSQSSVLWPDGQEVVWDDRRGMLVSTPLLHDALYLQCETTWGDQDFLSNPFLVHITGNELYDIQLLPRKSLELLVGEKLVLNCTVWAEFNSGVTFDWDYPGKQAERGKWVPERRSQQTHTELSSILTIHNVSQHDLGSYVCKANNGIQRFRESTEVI
# T2: His-tagged VEGFR-3 (residues 30-326) (human, UniProt P35916 30-326)
# T2 construct: human VEGFR-3, residues 30-326 (extracellular domains 1, 2 and 3); Cloned in pET-28a; In the functional rows it stands for the VEGFR-3 of MDA-MB-231 cells; also called His-VEGFR-3; extracellular domains 1, 2, and 3; source: for SEC co-lysed with His-tagged VEGF-D cells and purified together on Ni-NTA
# T2 sequence (looked up): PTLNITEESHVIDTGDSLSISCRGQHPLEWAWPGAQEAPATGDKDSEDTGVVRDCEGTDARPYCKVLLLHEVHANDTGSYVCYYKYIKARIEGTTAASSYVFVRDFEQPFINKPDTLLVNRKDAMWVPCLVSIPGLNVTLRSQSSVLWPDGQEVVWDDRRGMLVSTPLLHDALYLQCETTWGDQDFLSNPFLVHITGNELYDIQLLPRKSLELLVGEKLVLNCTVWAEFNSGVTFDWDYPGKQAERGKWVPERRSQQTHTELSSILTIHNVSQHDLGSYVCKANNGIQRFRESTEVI
# Key:
# [1] = biological target: T1, His-tagged human VEGFR-3 (residues …); experiment: SPR; VEGFR-3 immobilised on a CM5 chip by amine coupling (2,300 response units); Biacore T100, 25°C; running buffer 50 mM HEPES (pH 7.7), 50 mM NaCl or 50 mM Tris-HCl (7.82), 50 mM NaCl; VEGF-D or mutant injected at 0.125, 0.25, 0.5, 1 uM, 10 ul/min; settings: both partners purified
# [2] = biological target: T2, His-tagged VEGFR-3 (residues 30-326); experiment: pull-down; 50 ug GST-tagged VEGF-D or mutant on Glutathione Sepharose 4 Fast Flow beads, 50 ug His-VEGFR-3 in 1X PBS, on ice overnight; eluted with 30 mM glutathione; Western blot with anti-His and anti-GST; settings: both partners purified
# [3] = biological target: T2, His-tagged VEGFR-3 (residues 30-326); experiment: SEC; His-tagged VEGF-D and His-tagged VEGFR-3 cells co-lysed, purified together on Ni-NTA, incubated 24 h at 4 °C; Superdex 200 10/300 GL, 50 mM Tris-HCl (pH 7.82), 200 mM NaCl, 0.1% glycerol, sample 17 mg/ml, 0.4 ml/min; fractions by SDS-PAGE; settings: partners not purified
# [4] = biological target: T2, His-tagged VEGFR-3 (residues 30-326); experiment: cell-based or functional assay
# [5] = biological target: T2, His-tagged VEGFR-3 (residues 30-326); experiment: SPR; VEGFR-3 immobilised on a CM5 chip by amine coupling (2,300 response units); VEGF-D or mutant injected at 0.125, 0.25, 0.5 and 1 uM, 10 ul/min; Biacore T100, 25 °C; 50 mM HEPES (pH 7.7), 50 mM NaCl or 50 mM Tris-HCl (7.82), 50 mM NaCl; settings: both partners purified
Kd [1] [nM],koff [1] [s⁻¹],kon [1] [M⁻¹ s⁻¹],Kd [5] [nM],Binder,also measured
–,–,–,960,"His-tagged VEGF-D (residues 89-205) I102A/E105A (ligand, human, UniProt O43915 89-205, looked up, human VEGF-D, residues 89-205, I102A and E105A; also called double mutated form of VEGF-D; source: E. coli BL21 (DE3), purified) FAATFYDIETLKVADEAWQRTQCSPRETCVEVASELGKSTNTFFKPPCVNVFRCGGCCNEESLICMNTSTSYISKQLFEISVPLTSVPELVPVKVANHTGCKCLPTAPRHPYSIIRR",–
956,0.0015,1570,–,"His-tagged VEGF-D (residues 89-205) I102A/E105A (ligand, human, UniProt O43915 89-205, looked up, Vascular endothelial growth factor D (VEGF-D), human, residues 89-205, double mutant I102A/E105A; same limits as Dm1 (see its note on the primers); source: E. coli BL21 (DE3), purified) FAATFYDIETLKVADEAWQRTQCSPRETCVEVASELGKSTNTFFKPPCVNVFRCGGCCNEESLICMNTSTSYISKQLFEISVPLTSVPELVPVKVANHTGCKCLPTAPRHPYSIIRR",–

# The next lines start with the binder.
Binder,Kd [1] [nM],koff [1] [s⁻¹],kon [1] [M⁻¹ s⁻¹],Kd [5] [nM],also measured
"His-tagged wild-type human VEGF-D (residues 89-205) (ligand, UniProt O43915 89-205, looked up, Vascular endothelial growth factor D (VEGF-D), human, residues 89-205 (major mature form); Cloned in pET-28a; also called Wild-type VEGF-D; major form) FAATFYDIETLKVIDEEWQRTQCSPRETCVEVASELGKSTNTFFKPPCVNVFRCGGCCNEESLICMNTSTSYISKQLFEISVPLTSVPELVPVKVANHTGCKCLPTAPRHPYSIIRR",268,0.00115,4310,–,–
"GST-tagged VEGF-D (residues 89-205) I102A (ligand, human, UniProt O43915 89-205, looked up, human VEGF-D, residues 89-205, I102A; Cloned in pGEX-4T-1) FAATFYDIETLKVADEEWQRTQCSPRETCVEVASELGKSTNTFFKPPCVNVFRCGGCCNEESLICMNTSTSYISKQLFEISVPLTSVPELVPVKVANHTGCKCLPTAPRHPYSIIRR",–,–,–,–,binding result [2]: binds
"His-tagged VEGF-D (residues 89-205), wild type (ligand, human, UniProt O43915 89-205, looked up, human VEGF-D, residues 89-205 (major mature form); Cloned in pET-28a; also called wild-type VEGF-D; mature VEGF-D; source: for SEC co-lysed with His-tagged VEGFR-3 cells and purified together on Ni-NTA) FAATFYDIETLKVIDEEWQRTQCSPRETCVEVASELGKSTNTFFKPPCVNVFRCGGCCNEESLICMNTSTSYISKQLFEISVPLTSVPELVPVKVANHTGCKCLPTAPRHPYSIIRR",–,–,–,270,"stoichiometry N [3]: 1; MTT cell viability of MDA-MB-231 cells, 0-600 ng VEGF-D, 24 h; EC50 [4]: 238 ng"
"GST-tagged VEGF-D (residues 89-205) E105A (ligand, human, UniProt O43915 89-205, looked up, human VEGF-D, residues 89-205, E105A; Cloned in pGEX-4T-1) FAATFYDIETLKVIDEAWQRTQCSPRETCVEVASELGKSTNTFFKPPCVNVFRCGGCCNEESLICMNTSTSYISKQLFEISVPLTSVPELVPVKVANHTGCKCLPTAPRHPYSIIRR",–,–,–,–,binding result [2]: binds
"His-tagged VEGF-D (residues 89-205) D103A/Q110A (ligand, human, UniProt O43915 89-205, looked up, Vascular endothelial growth factor D (VEGF-D), human, residues 89-205, double mutant D103A/Q110A; same limits as Dm1 (see its note on the primers); source: E. coli BL21 (DE3), purified) FAATFYDIETLKVIAEEWQRTACSPRETCVEVASELGKSTNTFFKPPCVNVFRCGGCCNEESLICMNTSTSYISKQLFEISVPLTSVPELVPVKVANHTGCKCLPTAPRHPYSIIRR",533,0.00103,1940,–,–
"His-tagged VEGF-D (residues 89-205) D103A/Q110A (ligand, human, UniProt O43915 89-205, looked up, human VEGF-D, residues 89-205, D103A and Q110A; also called D103A/Q110A mutant; double mutated form of VEGF-D; source: E. coli BL21 (DE3), purified) FAATFYDIETLKVIAEEWQRTACSPRETCVEVASELGKSTNTFFKPPCVNVFRCGGCCNEESLICMNTSTSYISKQLFEISVPLTSVPELVPVKVANHTGCKCLPTAPRHPYSIIRR",–,–,–,530,–

# Reference: article PMC11729338, “Molecular Characterization and Interaction between Human VEGF-D and VEGFR-3” (Journal of Microbiology and Biotechnology, 2024)
